The results in this text go back to publication PMC7337897.

This experiment concerns the target E2F1 (UniProt Q01094). Description: proximity ligation; in situ PLA in fixed, permeabilised H1299 cells, under normal (EV) and GAr-induced mRNA translation stress conditions; Duolink PLA kit; the antibodies of the protein-protein PLA are not told.
Sequence of UniProt Q01094 (Q01094 whole entry): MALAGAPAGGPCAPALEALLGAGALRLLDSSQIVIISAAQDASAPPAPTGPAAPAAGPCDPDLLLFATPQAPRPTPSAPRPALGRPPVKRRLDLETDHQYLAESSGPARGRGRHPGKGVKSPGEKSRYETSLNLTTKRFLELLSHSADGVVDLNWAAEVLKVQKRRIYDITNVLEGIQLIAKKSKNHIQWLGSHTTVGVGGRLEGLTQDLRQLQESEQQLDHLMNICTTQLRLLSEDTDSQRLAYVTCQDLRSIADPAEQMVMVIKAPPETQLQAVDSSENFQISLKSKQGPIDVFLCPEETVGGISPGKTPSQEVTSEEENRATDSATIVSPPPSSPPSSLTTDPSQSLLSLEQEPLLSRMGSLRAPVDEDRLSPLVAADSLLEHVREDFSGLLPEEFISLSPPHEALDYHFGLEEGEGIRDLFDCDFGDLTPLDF

For “MDM2 (from UniProt Q00987 1-491) (natural protein)”, the PLA interactions per cell (interactions per cell) came out at 20.
